Measured values reported in the RNAGym collection of RNA variant scans (doi:10.1073/pnas.2313332121).

B1: TPR t1 (parent)
chain: GACCAAUCUGCCCUCAGAGCUCGAGAACAUCUUCGGAUGCAGAGGAGGCAGGCUUCGGUGGCGCGAUAGCGCCAACGUCCUCAACCUCCAAUGCAUCCCACCACAUGAUGAUGCCUGAAGAGCCUUGGUUUUUUG

Variants of: B1
Assay: polymerase ribozyme fitness, log enrichment relative to wild type (log ratio); higher = more active; in vitro selection for triplet polymerase activity
Summary of the method: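 Genotype fitness is the logarithm of its enrichment divided by wild-type enrichment, using inverse-variance-weighted averages of replicates. That logarithm is base 2. Enrichment was measured by Illumina sequencing of input and output libraries from one triplicate in vitro selection round, with frozen incubation at −7 °C, on PCR-built, transcribed mutant libraries of each subunit of a heterodimeric triplet polymerase ribozyme, retaining genotypes with ≥10 input reads and ≥1 read per output.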

Variant | polymerase ribozyme fitness (log ratio)
GACCAAUCUGUCCUCAGCGCUCGAGAACAUCUUCGGAUGCAGAGGAGGCAGGCUUCGGUGGCGCGAUAGCGGCAACGUCCUCAACCUCCAAUGCAUCCCACCACAUGAUGAUGCCUGAAGAGCCUUAGUUUUUUG [C11U A18C C72G G127A] | -5.18
GACCAAUCUGUCCUCAGAGCUCGAGAGCAUCUUCGGAUGCAGAGGAGGCAGGCUUCGGUGGCGCGAUAGCGCCAACGUCCUCAACUUCCAAUGCAUCCCACCACAUGAUGAUGCUUGAAGAGCCUUGGUUUUUUG [C11U A27G C86U C115U] | -7.32
GACCAAUCUGUCCUCAGAGCUCGAGAACGUCUUCGGAUGCAGAGGAGGCAGGCUUCGGUGGCGCGAUAGCGCCAACUUCCUCAUCCUCAAAUGCAUCCCACCACAUGAUGAUGCCUGAAGAGCCUUGGUUUUUUG [C11U A29G G77U A84U C89A] | -6.04
GACCAAUCUGUCCUCAGAGCUCGAGUACAUCUUCGGAUGCAGAGGAGGCAGGCGUCGGUGGCGCGAUAGCGCCAACGUCCUCAACCUCCAAUGCAUCCCACCACAUGAUGAUGCCUGAAGAGCCUUGGUUUUUUG [C11U A26U U54G] | -2.81
GACCAAUCUGGCCUCAGAGCUCGAGAACAUCUUCGGAUGCAGAGGAGGCAGGCUUCGGUGGCGCGAUAGCGCCAACGUCCUCAACCUCCAAUGCAUCCCACCACAUGAACAUGCCUGAAGAGCCUUGGUUUUUUG [C11G U109A G110C] | -4.59
GACCAAUCUGUCCUCAGGGCUCGAGAACAUCUUCGGAUGCAGAGUAGGCAGUCUUCGGUGACGCGAUAGCGCCAACGUCCUCAACCUCCAAUGCAUCCCACCACAUGAUGGUGCCUGAAGAGCCUUGGUGUAUUG [C11U A18G G45U G52U G61A A111G U130G U132A] | -6.3
GACCAAUCUGUCCUCAGAGCUCGAGAACAUCUUCGGCUGCAGAGUAGGCAGGCUUCGAUGGCGCGAUAGCGCCAACGUCCUCAACCUCCAAUGCAACCCAACACAUGAUGAUGCCUGAAGAGCCUUGGUUUUUUG [C11U A37C G45U G58A U96A C101A] | -2.32
GACCAAUCUGGCCUCAGAGCUCGAGAACAUCUUCGGAUGCAGAGGAGGCAGGCUUCGGUGGCGCGAUAGCGCCAACGUCCUCAACCUCCAAUGCAUCCCACCACAUGAUGAUGCCUGAAGAGCCUUGGCUUUUUG [C11G U129C] | -0.495
GACCAAUCUGUCCUCAGAGCUCGAGUACAUCUUCGGAUGCAGAGGAGGCAGCCUUCGGUGUCGCGAUAGCGCCAACGUCCUCAACCUCCAAUGCAUCCCACCACAUGAUGAUGCCUGAAGAGCCUUGGUUUUUUG [C11U A26U G52C G61U] | -2.85
GACCAAUCUGUCCUCAGAGCUCGAGAACAUCUUCGGAUGCAGUGGAGGCAGGGUUCGGUGGCGCGAUAGCGCCAACGUCCUCAACCUCCAAUGCAUCCCACCACAUGAUGAUGCCUGAAAAGCCUUGGUUUUUUG [C11U A43U C53G G120A] | -1.5
GACCAAUCUGUCCUCAGGGCUCGAGAACAUCUUCGGAUGCAGAGGAGGCUGGCUUCGGUGGCGCGAUAGCGCCAACGUCCUCAACCUCCAAUGCAACUCACCACAUGAUAAUGCCUGAAGGGCCUUGGUUUUUGG [C11U A18G A50U U96A C98U G110A A121G U134G] | -5.84
GACCAAUCUGUCCUCAGAGCUCGAGAACAUCUUCGGAUGCUGAGGAGGCAGUCUUCGGUGGCGCGAUAGCGCCAACGUCCUCAACCUCCAAUGCAUCCCACCACAUGAUGAUGCCUGAAGAGCCAUGGUUUUUUG [C11U A41U G52U U125A] | -3.07
GACCAAUCUGUCCUCAGAGCUCGAGUACAUCUUCGGAUGCAGAGGAUGCAGGCUUCGGUGGCGCGAUAGCGCCAACGUCCUCAACCUCCAAUGCAUCCCACCACAUGAUGAUGCCUGAAGAGCCUUGGUUUUUUG [C11U A26U G47U] | -3.55
GACCAAUCUGGCCUCAGAGCUCGAGAACAUCUUCGGAUGCAGAGGAGGCAGGCUUCGGUGGCGCGAUAGCGCCAACGUCCUCAACCUCCAAUGCAUCCCACCACAUGAUGAUGCCUGAAGAGCCUUGGUUGUUUG [C11G U131G] | -0.902
GACCAAUCUGUCCUCUGAGCUCGAGAACAUCUUCGGAUGCAGAGGAGGCAGGCGUCGGCGGCGCGAUAGCGCCAACGUCCUCAACCUCCAAUGCAUCCCACCACAUGAUGAUGCCUGAAGAGCCUUGGUUUUUUG [C11U A16U U54G U59C] | -3.88
GACCAAUCUGUCCUCAGAGCUCGAGAUCAUCGUCGGUUGCAGAGGAGGCAGGCUUCGGUGGAGCGAUAGCGCCAACGUCCUCAACCUCCAAUGCAUCCCACCACAUGAAGAUGCCUGAAGAGCCUUGGUUUUUUG [C11U A27U U32G A37U C62A U109A] | -5.82
GACCAAUCUGUCCUCAGAGCUCGAGAUCAUCUUCGGAUGCAGAGGAGGCAGGCUUCGGUGGCGCGAUAGCGUCAACGGCCUCAACCUCCAAUGCAUCCCACCACAUGAUGAUGCCUGAAGUGCCUUGGUUUUUUG [C11U A27U C72U U78G A121U] | -0.173
GACCAAUCUGUCCUCGGAGCUCGAGAACAUCUUCGGAUGCAGAGGAGGCAGGCGUCGGUGGCGCGAUAGCGCCAACGUCCUCAACCUCCAAUGCAUCCCACUAUAUGAUGAUGCCUAAAGAGCCUUGGUUUUUUG [C11U A16G U54G C102U C104U G117A] | -5.64
GACCAAUCUGUCCUCAGAGCUCGUGAAGAUCUUCGGAUGCAGAGGAGGCAGGCUUCGGUGGGGCGAUAGCGCCAACGUCCUCGACCUCCAAUGCAUCCCACCACAUGAUGAUUCCUGAAGAGCCUUGGUUUUCUG [C11U A24U C28G C62G A83G G113U U133C] | -6.38
GACCAAUCUGGCCUCAGAGCUCGAGAACAUCUUCGGAUGCAGAGGAGGCAGGCUUCGGUGGCGCGAUAGCGCCAACGUCCUCAACCUCCAAUGCAUCCCACCACAGGAUGAUGCCUGAAGAGCCUUGGUUUUUUG [C11G U106G] | -0.452
GACCAAUCUGUCCUCAGCGCUCGAGAUCAUCUUCGGAUGCAGAGGUGGCAGGCUUCGGUGGCGCGAUAGCGCCAACGUCCUCAACCUCCAAUGCAUCCCACCACAUGAUGAUGCCUGAAGAGCCUUGGUUUUUUG [C11U A18C A27U A46U] | -7.63
